Target: fibrin (Homo sapiens (Human)) (UniProt P02671)

δ-plasmin (enzyme)
percent clot digestion (clot weight before and after 2 hours of incubation, in serum, background-corrected): 7.17%
